Experimental data: article doi:10.1101/2022.01.25.477707 (bioRxiv, 2022)

T1: G5_(845-1508)-A951E-TAP (human), Q8TEQ6
T1 chain: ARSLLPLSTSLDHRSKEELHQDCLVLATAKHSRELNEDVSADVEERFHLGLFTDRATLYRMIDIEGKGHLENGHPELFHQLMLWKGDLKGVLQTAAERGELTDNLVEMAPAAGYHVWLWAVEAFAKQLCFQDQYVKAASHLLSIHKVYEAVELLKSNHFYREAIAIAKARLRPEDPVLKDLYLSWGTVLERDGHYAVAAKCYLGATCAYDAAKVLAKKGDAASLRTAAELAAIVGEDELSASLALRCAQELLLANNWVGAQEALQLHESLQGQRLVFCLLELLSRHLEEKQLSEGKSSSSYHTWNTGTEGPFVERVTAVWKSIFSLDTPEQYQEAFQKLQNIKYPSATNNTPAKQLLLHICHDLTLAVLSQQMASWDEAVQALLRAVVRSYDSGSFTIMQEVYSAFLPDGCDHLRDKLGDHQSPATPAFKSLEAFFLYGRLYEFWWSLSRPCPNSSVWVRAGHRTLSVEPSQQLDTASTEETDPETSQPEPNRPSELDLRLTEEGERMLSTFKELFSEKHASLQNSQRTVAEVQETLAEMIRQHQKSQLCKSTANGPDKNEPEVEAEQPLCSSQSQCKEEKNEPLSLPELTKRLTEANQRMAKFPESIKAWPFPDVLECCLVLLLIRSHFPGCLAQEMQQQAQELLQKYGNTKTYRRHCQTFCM

T2: G5_(845-1508)-R1016C-TAP (human, UniProt Q8TEQ6 845-1508, R1016C)
T2 sequence (looked up): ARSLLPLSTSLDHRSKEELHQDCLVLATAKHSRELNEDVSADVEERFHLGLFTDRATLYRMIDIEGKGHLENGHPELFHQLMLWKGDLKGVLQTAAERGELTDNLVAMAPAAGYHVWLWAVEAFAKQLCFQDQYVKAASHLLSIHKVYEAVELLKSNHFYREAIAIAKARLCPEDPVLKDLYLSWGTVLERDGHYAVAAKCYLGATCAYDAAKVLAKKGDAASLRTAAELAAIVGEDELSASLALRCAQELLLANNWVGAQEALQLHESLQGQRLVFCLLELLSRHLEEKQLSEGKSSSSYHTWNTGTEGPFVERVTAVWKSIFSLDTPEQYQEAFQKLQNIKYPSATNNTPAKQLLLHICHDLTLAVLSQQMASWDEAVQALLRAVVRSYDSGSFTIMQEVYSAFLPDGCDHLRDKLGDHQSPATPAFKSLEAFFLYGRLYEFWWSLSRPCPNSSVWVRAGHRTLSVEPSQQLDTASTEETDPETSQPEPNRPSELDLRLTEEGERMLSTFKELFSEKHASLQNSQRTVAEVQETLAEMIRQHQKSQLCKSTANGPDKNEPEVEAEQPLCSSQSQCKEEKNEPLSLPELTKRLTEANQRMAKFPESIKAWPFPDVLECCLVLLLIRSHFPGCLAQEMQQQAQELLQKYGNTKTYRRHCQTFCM

T3: G5_(845-1508)-D1019E-TAP (human, UniProt Q8TEQ6 845-1508, D1019E)
T3 sequence (looked up): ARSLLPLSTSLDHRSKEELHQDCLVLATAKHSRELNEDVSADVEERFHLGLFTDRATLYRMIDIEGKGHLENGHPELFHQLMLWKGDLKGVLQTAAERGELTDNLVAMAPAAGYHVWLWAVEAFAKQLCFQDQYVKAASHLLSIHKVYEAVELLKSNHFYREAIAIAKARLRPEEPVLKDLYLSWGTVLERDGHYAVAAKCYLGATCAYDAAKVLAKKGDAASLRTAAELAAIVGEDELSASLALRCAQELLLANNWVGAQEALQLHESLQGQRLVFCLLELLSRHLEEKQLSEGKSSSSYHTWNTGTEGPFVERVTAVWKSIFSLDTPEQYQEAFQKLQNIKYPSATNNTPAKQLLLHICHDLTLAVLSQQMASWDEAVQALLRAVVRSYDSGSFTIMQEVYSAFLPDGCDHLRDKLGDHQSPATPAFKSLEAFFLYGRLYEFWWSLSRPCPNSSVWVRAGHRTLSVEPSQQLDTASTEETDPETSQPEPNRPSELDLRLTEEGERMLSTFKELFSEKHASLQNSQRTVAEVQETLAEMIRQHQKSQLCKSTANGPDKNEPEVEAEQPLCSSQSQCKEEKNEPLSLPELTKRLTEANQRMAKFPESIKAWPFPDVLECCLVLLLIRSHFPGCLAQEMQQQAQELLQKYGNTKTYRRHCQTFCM


What was measured:
SEC-MALS = target: the molecule itself; test: SEC-MALS
[1] = target: T1, G5_(845-1508)-A951E-TAP (human), Q8TEQ6; test: co-IP; details: remark: other sources report otherwise
G5_(845-1508)-R1016C-TAP = target: T2, G5_(845-1508)-R1016C-TAP; test: co-IP
G5_(845-1508)-D1019E-TAP = target: T3, G5_(845-1508)-D1019E-TAP; test: co-IP

fold by which the recruitment of Gemin5 by WT exceeds that by this mutant [1]	intensity of co-IP relative to the WT protein (G5_(845-1508)-R1016C-TAP)	intensity of co-IP relative to the WT protein (G5_(845-1508)-D1019E-TAP)	Binder	stoichiometry N (SEC-MALS)
–	–	–	Gemin5 TPR-like dimerization domain R1016C (domain or fragment, human, UniProt Q8TEQ6 845-1097, looked up) ARSLLPLSTSLDHRSKEELHQDCLVLATAKHSRELNEDVSADVEERFHLGLFTDRATLYRMIDIEGKGHLENGHPELFHQLMLWKGDLKGVLQTAAERGELTDNLVAMAPAAGYHVWLWAVEAFAKQLCFQDQYVKAASHLLSIHKVYEAVELLKSNHFYREAIAIAKARLCPEDPVLKDLYLSWGTVLERDGHYAVAAKCYLGATCAYDAAKVLAKKGDAASLRTAAELAAIVGEDELSASLALRCAQELLL	2
–	–	–	Gemin5 TPR-like dimerization domain D1019E (domain or fragment, human, UniProt Q8TEQ6 845-1097, looked up) ARSLLPLSTSLDHRSKEELHQDCLVLATAKHSRELNEDVSADVEERFHLGLFTDRATLYRMIDIEGKGHLENGHPELFHQLMLWKGDLKGVLQTAAERGELTDNLVAMAPAAGYHVWLWAVEAFAKQLCFQDQYVKAASHLLSIHKVYEAVELLKSNHFYREAIAIAKARLRPEEPVLKDLYLSWGTVLERDGHYAVAAKCYLGATCAYDAAKVLAKKGDAASLRTAAELAAIVGEDELSASLALRCAQELLL	2
10 fold	58 % relative to the WT protein	62 % relative to the WT protein	Gemin5 endogenous protein (natural protein, human (endogenous in HEK293), UniProt Q8TEQ6 1-1508, looked up) MGQEPRTLPPSPNWYCARCSDAVPGGLFGFAARTSVFLVRVGPGAGESPGTPPFRVIGELVGHTERVSGFTFSHHPGQYNLCATSSDDGTVKIWDVETKTVVTEHALHQHTISTLHWSPRVKDLIVSGDEKGVVFCYWFNRNDSQHLFIEPRTIFCLTCSPHHEDLVAIGYKDGIVVIIDISKKGEVIHRLRGHDDEIHSIAWCPLPGEDCLSINQEETSEEAEITNGNAVAQAPVTKGCYLATGSKDQTIRIWSCSRGRGVMILKLPFLKRRGGGIDPTVKERLWLTLHWPSNQPTQLVSSCFGGELLQWDLTQSWRRKYTLFSASSEGQNHSRIVFNLCPLQTEDDKQLLLSTSMDRDVKCWDIATLECSWTLPSLGGFAYSLAFSSVDIGSLAIGVGDGMIRVWNTLSIKNNYDVKNFWQGVKSKVTALCWHPTKEGCLAFGTDDGKVGLYDTYSNKPPQISSTYHKKTVYTLAWGPPVPPMSLGGEGDRPSLALYSCGGEGIVLQHNPWKLSGEAFDINKLIRDTNSIKYKLPVHTEISWKADGKIMALGNEDGSIEIFQIPNLKLICTIQQHHKLVNTISWHHEHGSQPELSYLMASGSNNAVIYVHNLKTVIESSPESPVTITEPYRTLSGHTAKITSVAWSPHHDGRLVSASYDGTAQVWDALREEPLCNFRGHRGRLLCVAWSPLDPDCIYSGADDFCVHKWLTSMQDHSRPPQGKKSIELEKKRLSQPKAKPKKKKKPTLRTPVKLESIDGNEEESMKENSGPVENGVSDQEGEEQAREPELPCGLAPAVSREPVICTPVSSGFEKSKVTINNKVILLKKEPPKEKPETLIKKRKARSLLPLSTSLDHRSKEELHQDCLVLATAKHSRELNEDVSADVEERFHLGLFTDRATLYRMIDIEGKGHLENGHPELFHQLMLWKGDLKGVLQTAAERGELTDNLVAMAPAAGYHVWLWAVEAFAKQLCFQDQYVKAASHLLSIHKVYEAVELLKSNHFYREAIAIAKARLRPEDPVLKDLYLSWGTVLERDGHYAVAAKCYLGATCAYDAAKVLAKKGDAASLRTAAELAAIVGEDELSASLALRCAQELLLANNWVGAQEALQLHESLQGQRLVFCLLELLSRHLEEKQLSEGKSSSSYHTWNTGTEGPFVERVTAVWKSIFSLDTPEQYQEAFQKLQNIKYPSATNNTPAKQLLLHICHDLTLAVLSQQMASWDEAVQALLRAVVRSYDSGSFTIMQEVYSAFLPDGCDHLRDKLGDHQSPATPAFKSLEAFFLYGRLYEFWWSLSRPCPNSSVWVRAGHRTLSVEPSQQLDTASTEETDPETSQPEPNRPSELDLRLTEEGERMLSTFKELFSEKHASLQNSQRTVAEVQETLAEMIRQHQKSQLCKSTANGPDKNEPEVEAEQPLCSSQSQCKEEKNEPLSLPELTKRLTEANQRMAKFPESIKAWPFPDVLECCLVLLLIRSHFPGCLAQEMQQQAQELLQKYGNTKTYRRHCQTFCM	–
